From PMC9161685

Biological target: SARS-CoV-2 main protease (M^pro) triple mutant (Cys85Ser|Cys156Ser|Cys300Ser), (His)6-tagged (SARS-CoV-2)
Assay: SEC-MALS

SARS-CoV-2 main protease (M^pro) triple mutant (Cys85Ser|Cys156Ser|Cys300Ser), (His)6-tagged (enzyme)
stoichiometry N: 2
